Data on 1 molecule can be found in publication doi:10.1101/2024.01.05.574350, “Heparan sulfate selectively inhibits the collagenase activity of cathepsin K” (bioRxiv, 2024).

The assay has as its target T1, mature cathepsin K (murine) (murine, UniProt P55097 115-329).
T1 construct: cathepsin K, murine; catalytic Cys25; 22 kDa as printed; No tag is named; also called CtsK; mature CtsK; source: 293-Freestyle cells, transient expression of pro-CtsK
T1 sequence (looked up): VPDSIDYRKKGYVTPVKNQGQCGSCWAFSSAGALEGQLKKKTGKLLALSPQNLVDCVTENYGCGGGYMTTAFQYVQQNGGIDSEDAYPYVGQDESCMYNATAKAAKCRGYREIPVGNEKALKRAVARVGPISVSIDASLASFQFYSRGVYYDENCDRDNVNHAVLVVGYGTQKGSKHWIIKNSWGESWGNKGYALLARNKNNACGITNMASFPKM
Kind of assay: SEC; CtsK and Cst3 without HS, Superdex200 column. To be noted: both partners purified.

B1: Cystatin C (natural protein, UniProt P21460 21-140, looked up)
chain: ATPKQGPRMLGAPEEADANEEGVRRALDFAVSEYNKGSNDAYHSRAIQVVRARKQLVAGVNYFLDVEMGRTTCTKSQTNLTDCPFHDQPHLMRKALCSFQIYSVPWKGTHSLTKFSCKNA
notes: Cystatin C (Cst3), 13 kDa as printed; The printed residues (Pro7, Met9, Leu10, Gly11, Ala12, Leu56-Gly59, Pro105-Lys107) fit mature mouse cystatin C as I recall it, not the human protein; human cystatin C (PDB 3GAX) was only the search model for molecular replacement; also called Cst3; Cts3
Regarding B1, the stoichiometry N (in general, the number of molecules, sites or subunits per partner or assembly) amounted to 1.
